Like-named read-outs stand apart in the source and are kept apart here. Values belong to the binder of their own block, whether it stands above or below them.
How the values were obtained:
[1] = biological target: T1, recombinant human OX40L (extracellular domain, R&D Systems) (human, UniProt P23510 51-183); experiment: cell-based or functional assay
T1 sequence: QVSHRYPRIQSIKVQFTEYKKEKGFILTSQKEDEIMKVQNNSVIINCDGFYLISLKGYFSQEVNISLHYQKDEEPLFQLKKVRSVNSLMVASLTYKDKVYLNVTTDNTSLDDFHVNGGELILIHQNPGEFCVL

[2] = biological target: T2, biotinylated hOX40L (R&D Systems, biotinylated in house) (human, UniProt P23510 51-183, biotinylated with Sulfo-NHS-LC-Biotin, sites not stated); experiment: hOX40L/hOX40 AlphaScreen, native sample
T2 construct: same bought protein as m10, biotinylated; also called biotinylated OX40L
T2 sequence: T1 sequence
Description: (§1) Next, streptavidin donor beads were added and incubated for an additional 1 hour. Fluorescence was measured by reading plates on the EnVision Multilabel Plate Reader using an excitation wavelength of 680 nm and an emission wavelength of 520 nm.
(§2) In the TSA assay, Nanobodies were diluted to a concentration of 0.2 mg/ml and melting temperature (Tm) was determined at different pH by stepwise increase in temperature in presence of Sypro Orange, a dye that binds to […] residues that become exposed upon unfolding of the protein, using the Lightcycler (Roche) for detection. […] In SEC analysis, the Nanobodies were analyzed on a Phenomenex matrix to allow detection of multimers, aggregates or ‘stickyness’.

[3] = biological target: T2, biotinylated hOX40L (R&D Systems, …); experiment: hOX40L/hOX40 AlphaScreen, sample heated 1 min at Tm+10 C
Description: as §1, §2

hTNF-alpha [4] = biological target: T3, hTNF-alpha (human, UniProt P01375 77-233); experiment: competition ELISA: fixed concentration of OX40L01E07 pre-incubated with a concentration series of the competitor, then added to biotinylated hOX40L captured on neutravidin; OD450nm
T3 sequence (P01375 77-233 limits assumed): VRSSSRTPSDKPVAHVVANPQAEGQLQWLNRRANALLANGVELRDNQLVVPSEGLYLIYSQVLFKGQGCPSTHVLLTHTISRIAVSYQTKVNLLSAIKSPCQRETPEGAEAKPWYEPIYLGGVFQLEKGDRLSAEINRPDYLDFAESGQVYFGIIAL
Description: (§3) The binding of OX40L blocking Nanobodies to other TNF family members was tested in a competition ELISA.
(§4) Detection was done using sTMB (SDT Reagents, Baesweiler, Germany), the reaction was stopped with 1M HCl and absorbance was determined at 450 nm.

hCD40L [5] = biological target: T4, hCD40L (human, UniProt P29965 113-261); experiment: as above
T4 sequence (looked up): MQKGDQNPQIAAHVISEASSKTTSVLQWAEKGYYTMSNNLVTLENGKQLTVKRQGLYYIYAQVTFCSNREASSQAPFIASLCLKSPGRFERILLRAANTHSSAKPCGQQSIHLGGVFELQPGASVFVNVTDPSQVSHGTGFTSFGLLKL
Description: as §3, §4

hCD30L [6] = biological target: T5, hCD30L (human, UniProt P32971 63-234); experiment: as above
T5 sequence (looked up): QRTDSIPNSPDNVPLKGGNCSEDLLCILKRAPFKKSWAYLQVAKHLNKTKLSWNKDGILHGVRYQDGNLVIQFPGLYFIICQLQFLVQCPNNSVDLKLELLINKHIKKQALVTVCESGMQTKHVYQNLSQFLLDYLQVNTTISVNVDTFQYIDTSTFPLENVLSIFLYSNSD
Description: as §3, §4

[7] = biological target: T6, human Receptor Activator for Nuclear Factor kappa B Ligand (human, UniProt O14788 143-317, limits assumed); experiment: as above
T6 construct: also called hRANKL; RANKL
T6 sequence (looked up): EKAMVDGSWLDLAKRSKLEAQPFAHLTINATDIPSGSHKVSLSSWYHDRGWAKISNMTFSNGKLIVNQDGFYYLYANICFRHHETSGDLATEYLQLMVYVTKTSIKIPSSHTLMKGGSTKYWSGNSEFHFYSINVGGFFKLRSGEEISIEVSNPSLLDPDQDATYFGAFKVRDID
Description: as §3, §4

[8] = biological target: T7, human tumor necrosis factor-related apoptosis inducing ligand (human, UniProt P50591 114-281); experiment: as above
T7 construct: also called hTRAIL; TRAIL
T7 sequence (P50591 114-281 limits assumed): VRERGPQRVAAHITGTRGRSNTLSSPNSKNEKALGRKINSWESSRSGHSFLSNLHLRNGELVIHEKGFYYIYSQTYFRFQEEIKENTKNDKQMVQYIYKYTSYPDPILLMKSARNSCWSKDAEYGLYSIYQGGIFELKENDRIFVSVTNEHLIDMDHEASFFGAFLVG
Description: as §3, §4

[9] = biological target: T1, recombinant human OX40L (extracellular …); experiment: cell-based or functional assay; remark: listed apart in the source
[10] = biological target: T2, biotinylated hOX40L (R&D Systems, …); experiment: hOX40L/hOX40 AlphaScreen, assay 1, native
Description: Next, streptavidin donor beads were added and incubated for an additional 1 hour. Fluorescence was measured by reading plates on the EnVision Multilabel Plate Reader using an excitation wavelength of 680 nm and an emission wavelength of 520 nm. […]

[11] = biological target: T2, biotinylated hOX40L (R&D Systems, …); experiment: hOX40L/hOX40 AlphaScreen, assay 3, native
Description: as §1, §2

[12] = biological target: T2, biotinylated hOX40L (R&D Systems, …); experiment: hOX40L/hOX40 AlphaScreen, assay 2, heated at Tm+10 C
hTNF-alpha [13] = biological target: T3, hTNF-alpha; experiment: competition ELISA on neutravidin captured biotinylated hOX40L
Description: as §3, §4

hCD40L [14] = biological target: T4, hCD40L; experiment: as above
Description: as §3, §4

hCD30L [15] = biological target: T5, hCD30L; experiment: as above
Description: as §3, §4

[16] = biological target: T6, human Receptor Activator for Nuclear …; experiment: as above
Description: as §3, §4

IC50, T cell assay with rec. hOX40L [1]: 1.48 nM
IC50 [2]: 0.1 nM
IC50 [3]: 0.1 nM
binding result (hTNF-alpha [4]): no binding
binding result (hCD40L [5]): no binding
binding result (hCD30L [6]): no binding
binding result [7]: no binding
B1: OX40L01E07 (VHH)
VHH: EVQLVESGGGLVQAGGSLRLSCAASGRTFSSIYAKGWFRQAPGKEREFVAAISRSGRSTSYADSVKGRFTISRDNAKNTVYLQMNSLKPEDTAVYYCAAVGGATTVTASEWDYWGLGTQVTVSS
notes: monovalent Nanobody from E. coli; not shown: C-terminal c-myc and His6 tag
binding result [8]: no binding

IC50, T cell assay with rec. hOX40L [9]: 10 nM
IC50 [10]: 0.102 nM
IC50 [11]: 0.077 nM
IC50 [12]: 0.103 nM
B2: OX40L15B07 (VHH)
VHH: EVQLVESGGGLVQAGGSLRLSCAASRSIGRLDRMGWYRHRTGEPRELVATITGGSSINYGDFVKGRFTISIDNAKNTVYLQMNNLKPEDTAVYYCNFNKYVTSRDTWGQGTQVTVSS
notes: as for B1
binding result (hTNF-alpha [13]): no binding (tested: starting from 100 fold molar excess)
binding result (hCD40L [14]): no binding (tested: starting from 100 fold molar excess)
binding result (hCD30L [15]): no binding (tested: starting from 100 fold molar excess)
binding result [16]: no binding (tested: starting from 100 fold molar excess)

IC50 [2]: 0.54 nM
IC50 [3]: 0.6 nM
B3: OX40L01B11 (VHH)
VHH: EVQLVESGGGLVQAGGSLRLSCVASGRSFSTYIMGWFRQAPGKEREFVATISRSGITTRSADSVKGRFTISRDNAKNTVYLQMNSLKPEDTAVYYCAAGPYVEQTLGLYQTLGPWDYWGQGTQVTVSS
notes: as for B1
binding result (hTNF-alpha [13]): no binding (tested: starting from 100 fold molar excess)
binding result (hCD40L [14]): no binding (tested: starting from 100 fold molar excess)
binding result (hCD30L [15]): no binding (tested: starting from 100 fold molar excess)
binding result [16]: no binding (tested: starting from 100 fold molar excess)

Reference: patent publication US20150218281A1 (Ablynx, published 2015)
